# Laboratory results from the supplement of paper PMC11316812.
# ± gives the standard deviation of the averaged measurements.
# Key:
# hTERT-HMEC = assay: percentage of EdU-negative (G0-arrested) nuclei per well, 72 h; higher = more G0 arrest; conditions: reference: sequence is the full UniProt precursor, the tested protein was the secreted form or ectodomain
# MCF7 = assay: as above; conditions: reference: sequence is the full UniProt precursor, the tested protein was the secreted form or ectodomain
# [1] = protein concentration 0.0357143 µM
# [2] = protein concentration 0.357143 µM
# [3] = protein concentration 0.0270475 µM
# [4] = protein concentration 0.270475 µM
# [5] = protein concentration 0.0225 µM
# 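Also: secreted proteins added to cultured cells, EdU pulse at the end, nuclei found by Hoechst imaging, EdU status from nuclear versus surrounding ring intensity ratio, PBS as neutral control.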
Sequence,percentage of EdU-negative (hTERT-HMEC; [5]),percentage of EdU-negative (hTERT-HMEC; protein concentration 0.225 µM),percentage of EdU-negative (MCF7; [5]),percentage of EdU-negative (MCF7; protein concentration 0.225 µM),further results
MAQTNSFFMLISSLMFLSLSQGQESQTELPNPRISCPEGTNAYRSYCYYFNEDPETWVDADLYCQNMNSGNLVSVLTQAEGAFVASLIKESSTDDSNVWIGLHDPKKNRRWHWSSGSLVSYKSWDTGSPSSANAGYCASLTSCSGFKKWKDESCEKKFSFVCKFKN,–,–,–,–,percentage of EdU-negative (hTERT-HMEC; [1]): 5.51 ± 1.2%; percentage of EdU-negative (hTERT-HMEC; [2]): 5.35 ± 1.6%; percentage of EdU-negative (MCF7; [1]): 27 ± 1.8%; percentage of EdU-negative (MCF7; [2]): 24.6 ± 0.83%
MAQTSSYFMLISCLMFLSQSQGQEAQTELPQARISCPEGTNAYRSYCYYFNEDRETWVDADLYCQNMNSGNLVSVLTQAEGAFVASLIKESGTDDFNVWIGLHDPKKNRRWHWSSGSLVSYKSWGIGAPSSVNPGYCVSLTSSTGFQKWKDVPCEDKFSFVCKFKN,–,–,–,–,percentage of EdU-negative (hTERT-HMEC; [3]): 6.23 ± 0.99%; percentage of EdU-negative (hTERT-HMEC; [4]): 6.73 ± 0.84%; percentage of EdU-negative (MCF7; [3]): 25 ± 1.8%; percentage of EdU-negative (MCF7; [4]): 23.9 ± 0.49%
MAQYLSTLLLLLATLAVALAWSPKEEDRIIPGGIYNADLNDEWVQRALHFAISEYNKATKDDYYRRPLRVLRARQQTVGGVNYFFDVEVGRTICTKSQPNLDTCAFHEQPELQKKQLCSFEIYEVPWENRRSLVKSRCQES,5.26 ± 0.4%,5.09 ± 0.29%,25.5 ± 1.2%,25 ± 0.45%,–
MARAAALLPSRSPPTPLLWPLLLLLLLETGAQDVRVQVLPEVRGQLGGTVELPCHLLPPVPGLYISLVTWQRPDAPANHQNVAAFHPKMGPSFPSPKPGSERLSFVSAKQSTGQDTEAELQDATLALHGLTVEDEGNYTCEFATFPKGSVRGMTWLRVIAKPKNQAEAQKVTFSQDPTTVALCISKEGRPPARISWLSSLDWEAKETQVSGTLAGTVTVTSRFTLVPSGRADGVTVTCKVEHESFEEPALIPVTLSVRYPPEVSISGYDDNWYLGRTDATLSCDVRSNPEPTGYDWSTTSGTFPTSAVAQGSQLVIHAVDSLFNTTFVCTVTNAVGMGRAEQVIFVRETPNTAGAGATGGIIGGIIAAIIATAVAATGILICRQQRKEQTLQGAEEDEDLEGPPSYKPPTPKAKLEAQEMPSQLFTLGASEHSPLKTPYFDAGASCTEQEMPRYHELPTLEERSGPLHPGATSLGSPIPVPPGPPAVEDVSLDLEDEEGEEEEEYLDKINPIYDALSYSSPSDSYQGKGFVMSRAMYV,4.75 ± 0.29%,5.33 ± 0.83%,21.9 ± 1.3%,22.8 ± 0.43%,–
MARAGPAWLLLAIWVVLPSWLSSAKVSSLIERISDPKDLKKLLRTRNNVLVLYSKSEVAAENHLRLLSTVAQAVKGQGTICWVDCGDAESRKLCKKMKVDLSPKDKKVELFHYQDGAFHTEYNRAVTFKSIVAFLKDPKGPPLWEEDPGAKDVVHLDSEKDFRRLLKKEEKPLLIMFYAPWCSMCKRMMPHFQKAATQLRGHAVLAGMNVYSSEFENIKEEYSVRGFPTICYFEKGRFLFQYDNYGSTAEDIVEWLKNPQPPQPQVPETPWADEGGSVYHLTDEDFDQFVKEHSSVLVMFHAPWCGHCKKMKPEFEKAAEALHGEADSSGVLAAVDATVNKALAERFHISEFPTLKYFKNGEKYAVPVLRTKKKFLEWMQNPEAPPPPEPTWEEQQTSVLHLVGDNFRETLKKKKHTLVMFYAPWCPHCKKVIPHFTATADAFKDDRKIACAAVDCVKDKNQDLCQQEAVKGYPTFHYYHYGKFAEKYDSDRTELGFTNYIRALREGDHERLGKKKEEL,–,–,–,–,percentage of EdU-negative (hTERT-HMEC; protein concentration 0.019 µM): 4.5 ± 0.56%; percentage of EdU-negative (hTERT-HMEC; protein concentration 0.19 µM): 6.73 ± 0.2%; percentage of EdU-negative (MCF7; protein concentration 0.019 µM): 22.8 ± 0.61%; percentage of EdU-negative (MCF7; protein concentration 0.19 µM): 22.5 ± 0.95%
MARAHWGCCPWLVLLCACAWGHTKPVDLGGQDVRNCSTNPPYLPVTVVNTTMSLTALRQQMQTQNLSAYIIPGTDAHMNEYIGQHDERRAWITGFTGSAGTAVVTMKKAAVWTDSRYWTQAERQMDCNWELHKEVGTTPIVTWLLTEIPAGGRVGFDPFLLSIDTWESYDLALQGSNRQLVSITTNLVDLVWGSERPPVPNQPIYALQEAFTGSTWQEKVSGVRSQMQKHQKVPTAVLLSALEETAWLFNLRASDIPYNPFFYSYTLLTDSSIRLFANKSRFSSETLSYLNSSCTGPMCVQIEDYSQVRDSIQAYSLGDVRIWIGTSYTMYGIYEMIPKEKLVTDTYSPVMMTKAVKNSKEQALLKASHVRDAVAVIRYLVWLEKNVPKGTVDEFSGAEIVDKFRGEEQFSSGPSFETISASGLNAALAHYSPTKELNRKLSSDEMYLLDSGGQYWDGTTDITRTVHWGTPSAFQKEAYTRVLIGNIDLSRLIFPAATSGRMVEAFARRALWDAGLNYGHGTGHGIGNFLCVHEWPVGFQSNNIAMAKGMFTSIEPGYYKDGEFGIRLEDVALVVEAKTKYPGSYLTFEVVSFVPYDRNLIDVSLLSPEHLQYLNRYYQTIREKVGPELQRRQLLEEFEWLQQHTEPLAARAPDTASWASVLVVSTLAILGWSV,5.4 ± 1.8%,6.21 ± 0.83%,23.2 ± 0.31%,26.8 ± 0.78%,–
